Among the data in patent publication US20130274129 are activity values, retold here.

The series deals with AvrBs3-KRAB. The series is described as follows: cell_activity. The settings on record: two copies of TAL site, LacZ reporter, 293FT; around 40% with one copy.

In turn, “AvrBs3 TAL binding site in CMV promoter reporter” registered an activity of 70 % repression.
